How the values were obtained:
[1] = system: 4T1 cells injected subcutaneously; assay: In vivo assay for primary tumor growth and pulmonary metastases; design: species or system Balb/c mice
Protocol: FIG. 4A is a graph showing the effect of lipocalin 2 on 4T1 primary tumor growth. 4T1 clones (EV, R, and RL) were suspended in PBS and injected subcutaneously in the backs of Balb/c mice. Primary tumor size was calculated based upon measurements at 1, 2, and 3 weeks. […] FIGS. 4E-F show graphs depicting the lung weight (FIG. 4E) and the number of metastatic nodules on the lung surface (FIG. 4F).
10^7 4T1-(EV, R, and RL) cells were injected subcutaneously in Balb/c mice (Asai et al., Int. J. Cancer. 76:418-422, 1998). Though this model is not the standard orthotopic model used, we have used it extensively in our laboratory to study metastases in lung. Primary tumor volume (V)=a·b·b/2, where a represents the […] tumor diameter. After 3 weeks, lung weights and the number of metastatic nodules on the lung surface were evaluated.

[2] = system: caveolin-1; assay: Western blot of caveolin-1 expression in 4T1 clones; assay type: cell-based, mouse; conditions: RL vs R cells
Excerpt: FIGS. 17A-17C show the involvement of caveolin-1 in the MET-inducing and anti-angiogenic function of lipocalin 2.
Cells were stained as described previously (Mammoto et al., Cancer Lett. 184:165-170, 2002) and images acquired with a Delta Vision system (Applied Precision, Issaquah, Wash.) equipped with an Axiovert 100 microscope (Carl Zeiss MicroImaging Inc., Shelton, Conn.) and a Photometrics 300 series scientific-grade cooled CCD camera, reading 12-bit images, and using the 63/1.4 NA plan-Neofluar objective. For immunoprecipitation and immunoblotting, tissues were weighed, diced, soaked in ice cold RIPA buffer with 1 mM phenylmethylsulfonyl fluoride (PMSF), 1 μg/ml Aprotinin, 1 mM Na3VO4, 1 nM NaF, homogenized on ice, centrifuged at 10,000 g for 10 minutes at 4° C., and the supernatant fluid collected as total cell lysate. Cultured cells were washed, scraped, and solubilized in a lysis buffer containing 20 mM Tris-HCl pH 7.5, 150 mM NaCl, 0.5% Triton X-100, 1% aprotinin, and 1 mM PMSF. After 20 minutes on ice, the cells were pelleted by centrifugation and the supernatants were used as a cell lysate. […] Protein bands were detected using SuperSignal® West Pico Chemiluminescent Substrate (Pierce Chemical Co., Rockford, Ill.) (Hanai et al., J. Cell. Biol. 158:529-539, 2002).

B1: lipocalin 2: human lipocalin 2 cDNA (HA tagged) in pcDNA3.1, stably expressed in 4T1-ras cells (RL clone); iron-siderophore binding protein (protein, UniProt P80188 21-198, looked up)
Neutrophil …: QDSTSDLIPAPPLSKVPLQQNFQDNQFQGKWYVVGLAGNAILREDKDPQKMYATIYELKEDKSYNVTSVLFRKKKCDYWIRTFVPGCQPGEFTLGNIKSYPGLTSYLVRVVSTNYNQHAMVFFKKVSQNREYFKITLYGRTKELTSELKENFIRFSKSLGLPENHIVFPVPIDQCIDG
modifications: HA tag
In the case of B1, the primary tumor size ([1]; R vs RL tumors, 1, 2 and 3 weeks post-inoculation) is reported as “Primary tumors of R cells were significantly larger than lipocalin 2 cells”, the “reduction of number of metastatic pulmonary nodules” value ([1]; RL cells compared to R cells, 3 weeks after s.c. injection) is reported as 80% and the lung weight ([1]; RL compared to R cells, 3 weeks) is reported as “lung weights were less”. For the same molecule, the caveolin-1 expression [2] was “rescued this loss of caveolin-1”.

From patent publication US20090305963A1, “Lipocalin 2 for the Treatment, Prevention, and Management of Cancer Metastasis, Angiogenesis, and Fibrosis” (priority 2005, published 2009)
